Source: the PETadex activity labels

B1: unnamed (protein)
chain: MRAGFMGVGAAALVALAGCSSTPSNEGTSKPSVTAPTGGSTVIGAAGVGATAGRPASAGTGASPAVTPPSTTVPSGTTKPPAAAGSSAMGAAGAAVSGMAGSSASAGTGAIAGSSAAAGSSAAAGSGAAAGSGAAPGGGFIREAAPTEDSLKKNGEYSVKSYTEKDGLVGGMEYGDAALGGDGSELYYPEGATAPFAAMAIVPGFTAQRSDVAPWGPFLASHGIVALVIDTNSTGDQPDVRSRALLDALESIKKENMRDGSPVKGKIDTSRLGVMGWSMGGGGTWITADGHPELKVAVSLCGWIIQSIGSKTTVPSLQLAVQDDQLAAGMSQPVYMAIPDKTPKMLVEWSSGGHWINNSPENVDHQVGRYGLPWIKVYLENDERYRQFFKTKPTGASDFQTNQ
B2: unnamed (protein)
chain: MRPSSSSLHTAVPLRPCSRAMTALIALATTIGLALALLTAAAPPAAAADLLSQGRLATASSTENTSTPASAAVDGNTGTRWASTFSDPQWLSVDLGATATISQVVLRWEAAYARAFQIQTSTNGTVWTTVHSTTTGTGGVQTLDVIGNGRYVRMLGTQRGTTYGYSLFEFQVYGSGGGTPPGNGIPDPTATSLETANGPLTTATYAVPSPSGYGSGTVTYPTDSGSYPGVVLMPGYQGTQQNLQWLAPRLASWGFVVINVGTNTLTDDPASRGRQITAAGSQLIALGNAAGNPLSGRVSGALGAVGHSMGGGGVMAALRDDARFRAGVPTAPYYPDTNFSAVTEPTFFLTCQSDPVAHGNDYAVPWYNSMSQAEKLYIEVPGDHLCPMTGSGNKAKQGKWIVSFLSLWLRADTRFSPFLCGPVRDPDKNNPSLVTRWMDTCSF
B3: unnamed (protein)
chain: MKTSNTRTARTIPGDTMSLGLTRLAKAAVLAAALLMSAAAQAQSNPYQKGPDPTAASLEATAGSFAVSTTSVSSLSASGFGGGTIYYPTAAGSYGAIAVSPGFTATQSSIAWLGPRLASHGFVVITIDTNSTLDQPDSRATQLMAALNYVVSLSQTSSSPIYGKVDANRLGVAGHSMGGGGTLIAARDNPTLKAAVPLAPWNTTKNFSSVTVPTLIIGCENDTVAPVSSHAIPFYNSIPSSTDKAYMELNGADHFCPQSSSNNPIIGKYMVAWMKRFVDNDTRYSPFLCGAPHQADLSSSAVSDYRSNCPY
B4: unnamed (protein)
chain: MNTSILEKMAVGASALLFSFSAFSFTPDPTPDPDPDPGPGPCQSDCDFTRGPNPTSSYLEANSGPYSVSTISVSRSVSGFGGGTIHYPTNTTGTMGAVAIVPGFLAGESSISWWGPRLASHGFVVITIATNSGFDQPDSRETQLGRALDYVISQSNSGSSPISGMVDSTRVGAMGWSMGGGGTLRLASGTRLSAAIPLAPWHSGSNNFNQIDTPTLIIACENDSTAPVGSHASPFYNRIPTSTDKAYLEINNGSHSCANGGGSNGGLLGKYGVSWMKRFIDQDTRYSQFLCGPNHAANSAISEYRETCNY
B5: unnamed (protein)
chain: MLALRTSFPRVLTRLLAASLATGLVAQAQAAGHERGPAPTAASLEAEAGPFQVASTVLGAPVGYKGGTVFYPKGPGPFALVAFAPGFIETQSWNAWWAKYLASHGFVVVNIDTKSTLAFPPARQREQLAALKDVIQRSHTRGTPFYGLVDATRLGAMGHSMGGGATLELARDTPHIKAIVPMAPFQTTGTDYSRLTVPTLILTCKGDIVASAKSHAAPIYDSLPSSLDKAHVELAGGGGHPCTTSLGTSAEVKKVAAKYGVSWLKRFLDEDTRYSPFLCGAEHEASLKTSVVSAYQGNCPH
B6: unnamed (protein)
chain: MGSDDAWIRGEDPTEASIVAMGPYAVGEITEADGLRDGPLYGDASVGDGGATVYYPTDADPPFGGIAVYPGWLYNRDAIAGWGPFLASHGIVMMAVDPQSTGEQPEDRQLGQADALISLKGENTRAGSPLEGKLDTTRLGVMGWSMGGGATWLNADDTASEVYADLVVAISLCGWRPVAVGGNTKAASLQFASVADVLAGGMSQPVYDLIPASTPKMLIEFEGDDHFIANDPSGASWQVGRYGLSWIKVFLERDERYRPFLMTMPMNTTEVRPLM
B7: unnamed (protein)
chain: MRLIRRWPMRRLAIGFVLALVLSACDWRGPAPTQQSVVAARGPFAVGTIAVPSSAGFGGGTIYYPSDNAGPFAVISISPGFLGDQSSIAVWGPRLASNGFVAITINTTNGFILPDQRSQEQRQALTYVVNQGNNPSSPISGKVDPDRKGVAGHSMGGGATLISANADPTIRAAMPLAPWNGSASFPNVRVPTLIWACEADNIAPVASHASPMYNSIPSTTRKMYLSVDNGNHFCANSPDNSSQTVGKFGVSFFKKFLDTDTRYDPWVCGASRATAGTVLNEVRSTCPF
B8: unnamed (protein)
chain: MSCRQEPLGDKMRFFSQKCLATVAAVVATLASGAALAQTSNPYQRGPNPTTSSLEASRGSFAISQFRVSRPSGFGGGTVYYPTNAGGTVGAIAVVPGFLARQSTINWWGPRLASHGFVVITIDTNSTSDQPASRATQLMAALRQVVTLNGTRSSPIYNKVDTSRLAVMGWSMGGGGTLIAARDNPTLKAAVPFAPYNTGTNFSASAVPTLIIGCESDTVAPVGQHAEAFYTSMTRPEKAYLEINGGSHTCATSGNRNQAMIGKYGVSWMKRFVDNDTRFSDFLCGAPHAADLRNTSVISEYRETCPY
B9: unnamed (protein)
chain: MKTSNSRQRRWAVGLGLLLLAAAAHAQTNPYQKGPDPTSASLNATAGPFAVATTSVSSSASGFGGGTIYYPTTAGSYAAIAISPGFTATQSSIAWLGRRLASHGFVVITINTNSTLDQPPSRATQLMAALRYLTNSSSSTVRSRVDANRLGVAGHSMGGGGTLIAARDNPTLKAAVPLTPWSTTKSFSTVRVPTLIVGAENDTVAPVSSHSIPFYNSLPSSLDKAYAELNGASHFAPNSTNTPIGRYSVAWVKRFMDNDTRYSPFLCGAPHTAYATSTVFSDYRSTCPY
B10: unnamed (protein)
chain: MASQTNPYARGPNPTAASLEASAGPFTVRSFTVSRPSGYGAGTVYYPTNAGGTVGAIAIVPAYAARQSSIKWWGPRLASHGFVVITIDTNSTLDQPSSRSSQQMAALRQVASLNGTSSSPIYGKVDTARMGVMGWSMGGGGSLISAANNPSLKAAAPQAPWDSSTNFSSVTVPTLIFACENDSIAPVNSSALPIYDSMSRNAKQFLEINGGSHSCANSGNSNQALIGKKGVAWMKRFMDNDTRYSTFACENPNSTRVSDFRTANCSLEHHHHHH
B11: unnamed (protein)
chain: MKFRLAKLAVLSCALASASAFAQYQKGPDPTTSSLERAGSFATRTISVSSLAASGFGGGRIYYPTASGSYGVIAVSPGYTGTASTMYFWGERLSSHGFVVIVIETNTLLDQPGSRANQLMAALNYTVSQGNSRTSALYGKVDGNRRGVAGHSMGGGGTLIAAADNASLKAAVPMAPWNLSSLSFRGIRVPTMIFGCQSDAIAPVNTHAVPFYNAIPSSTKKGYVEMRLDDHFCVMNGGGHYETLGKLGISWFKRFIDEDTRYSKFLCGTEYNATVRSTEVSDSKNNCPY
B12: unnamed (protein)
chain: MLRFRVAASLPAEYLAVDNVVLEGTAQPPAPGGSGYQKGPEPTAALLEAGTGPFATASVTLSRSAASGFGGGTIHYPQGVAGPFAAVAVVPGYLAAESTIAWWGPRLASHGFVVITMATNNTLDLPASRSAQLTAALNQLKTLSATPGHAVFGLVDPNRLGVVGWSYGGGGTLLNAQANPQLKAAMALAPKTLLQGDFTGTTVPTLVVGCQADTTAAPAFWAIPFYNKVSASTGKAYLEVRGGSHFCVTSSTSDADKKALGKYGVAWLKRFMDEDTRYAPFLCGAPRQADVAGNAAISDYRDNCPY
B13: unnamed (protein)
chain: MKVNKAHSIAVGLLSLVAVAHTHAQTNPYAKGPDPTSAALEADGPFVVSTQNISGAGFGGATVYSPDTAGTYAVVAFCPGFTATRSSVASFGRRLATHGFVVATIDTNSTLDLPPSRGTQLLAALKTVSALSTGPAAGKIDASRKVVSGWSMGGGGTLYASASDETLKTAVGLAPYSAQKKKFSTSVPQLILGGEDDIVAPVSSHSLSFFNQLPNATPKLYAEIADADHYFPTDAESSQPASKLQIAWVKRFADNDTRYEQFLSTAGIQVDLTNGRLSDSRRESTTF
B14: unnamed (protein)
chain: MKFNLVAQAALFAATLAAGSAAWAVQIGPAPTKSALEASRGPFSTKSFTVSRPNGYGAGTVYYPTNAGAKVGVISIVPGYLSYQNSINWWGPRLASHGFVVVTIDTNSTTDQPASRSTQQLKALDQVVALGNTSSSPLYNKVDGSRTGVMGWSMGGGGSLISGQNRPSIKAAAPQAPWNSSTNFSSLTVPTLIFGCQSDATAAPASHAIPFYNSMSRNPKQYLEKSLGNHFCFNSANATVGLKGVAWMKRFVDGDTRYTSFACNNPNASGFSSFRTERCS
B15: unnamed (protein)
chain: MPGYQGTQQNLQWLAPRLASWGFVVINVGTTTLSDDPASRGRQISAAGTQLLALGNATGNPVSGKTDGTLGAVGHSMGGGGVMAALRDDARFRAGVPTAPYYPNMNFSQVTDPTFFLTCQSDPVAHGNTYAAPWYTSMTQAEKLYIEVPGDHLCPMTGSGDKAKQGKWIVSFLSLWLRADTRFSPFLCGPVRDADKNNTSLVTRWMDTCQF

Substrate: BHET
Settings: 120 h

| Protein | plate clearing |
| --- | --- |
| B1 | clears the plate (z > 3 vs empty vector) |
| B2 | not clears the plate |
| B3 | not clears the plate |
| B4 | not clears the plate |
| B5 | not clears the plate |
| B6 | clears the plate (z > 3 vs empty vector) |
| B7 | not clears the plate |
| B8 | not clears the plate |
| B9 | not clears the plate |
| B10 | not clears the plate |
| B11 | not clears the plate |
| B12 | not clears the plate |
| B13 | not clears the plate |
| B14 | not clears the plate |
| B15 | not clears the plate |
